Molecular target: T1, H2N—(CH2)4—CO-(SEQ ID NO:1)-NH—CH2-Fc (Homo sapiens, UniProt Q99538)
T1 construct: purchased R&D Systems Inc. (Minneapolis, Minn.)
T1 sequence (Q99538 18-323 limits assumed): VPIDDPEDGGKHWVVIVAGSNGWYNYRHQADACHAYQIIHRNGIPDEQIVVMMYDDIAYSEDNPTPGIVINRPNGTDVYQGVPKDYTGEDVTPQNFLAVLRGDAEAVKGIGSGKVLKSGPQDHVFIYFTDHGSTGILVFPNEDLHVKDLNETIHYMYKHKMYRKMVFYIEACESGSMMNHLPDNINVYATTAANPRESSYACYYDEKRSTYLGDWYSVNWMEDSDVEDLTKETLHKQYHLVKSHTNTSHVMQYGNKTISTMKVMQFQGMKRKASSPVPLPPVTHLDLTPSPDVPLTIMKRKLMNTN
Assay: ACV proteolysis kinetics of legumain on Fc-tetrapeptide immobilized on VACNF NEA
Assay type: biochemical
Text: In the protease study, a tetrapeptide H2N—(CH2)4—CO-(SEQ ID NO:1)-NH—CH2-Fc is covalently attached to the exposed tip of a VACNF NEA as shown in FIG. 2. Fc provides reliable redox signals at 0.25 V vs. Ag/AgCl (3M KCl) in ACV measurements. As shown in later sections, the unique structure of VACNF NEA enables the enhanced ACV signal at over 1750 Hz AC frequency. Upon being supplied with legumain (a cancer related protease), the peptide is cleaved at the site between Asn and Leu. As a result, the Fc moiety is released from the electrode surface into bulk solution, causing the redox signal to decrease. The kinetic of the enzymatic reaction at the electrode surface can be monitored by continuously repeated ACV measurements. The advantage of this method is that the Fc label provides a characteristic redox signal which can be easily separated from the nonFaradaic background and other redox signals. However, the mechanism becomes complicated for enzymes requiring much longer peptide sequences for specific recognition. The Fc signal involves electron transfer between Fc molecule and the electrode surface, which is highly sensitive to the Fc surface distance. This may vary in a large range depending on the molecular packing of the long peptides on the electrode surface.
For protease analysis, the tetrapeptide H2N—(CH2)4—CO-(SEQ ID NO:1)-NHCH2-Fc was covalently linked to the VACNF NEA by forming amide bond facilitated by EDC and sulfo-NHS. In order to stabilize the electronic signal, the electrode surface was reacted with 6-amino-1-hexanol to fill the remaining —COOH sites. […]
The electrochemical measurements were performed in a TEFLON cell with a total volume of 250 μL for legumain experiments and 120 μL for kinase/phosphatase experiments. […] The average AC current was measured as the potential was swept from −0.05 to +0.65 V at 10 mV/s scan rate using a staircase waveform. […]
The change in peak current (ip,acv) during continuously repeated ACV measurements with Fc-linked tetrapeptide immobilized on a VACNF NEA was measured. […]

[1] = Example 4, [E0]=80.1 nM legumain

time constant of exponential decay (Example 1, [E0]=773 nM legumain, f 1750 Hz, V0 150 mV): 1076 s
slope of reaction rate vi vs Γsurf [1]: 0.00063 s⁻¹
time constant of exponential decay [1]: 1101 s
B1: legumain: Recombinant human legumain/asparaginyl endopeptidase (molecular weight 49 kDa) from R&D Systems (protein, UniProt Q99538 18-323, looked up)
Legumain: VPIDDPEDGGKHWVVIVAGSNGWYNYRHQADACHAYQIIHRNGIPDEQIVVMMYDDIAYSEDNPTPGIVINRPNGTDVYQGVPKDYTGEDVTPQNFLAVLRGDAEAVKGIGSGKVLKSGPQDHVFIYFTDHGSTGILVFPNEDLHVKDLNETIHYMYKHKMYRKMVFYIEACESGSMMNHLPDNINVYATTAANPRESSYACYYDEKRSTYLGDWYSVNWMEDSDVEDLTKETLHKQYHLVKSHTNTSHVMQYGNKTISTMKVMQFQGMKRKASSPVPLPPVTHLDLTPSPDVPLTIMKRKLMNTN

Source: patent US9850520B2, “Electrochemical detection of proteases using AC voltammetry on nanoelectrode arrays” (Kansas State University Research Foundation, priority 2013, dated 2017)
